# Laboratory results reported in the Human Domainome abundance scans (Beltran et al. 2025).
# ± gives the uncertainty stated by the source.
# B1: Storkhead-box protein 2, residues 64 to 141; numbered along this chain, Q9P2F5 (parent)
# chain: SPISQSQFIPLGEILCLAISAMNSARKPVTQEALMEHLTTCFPGVPTPSQEILRHTLNTLVRERKIYPTPDGYFIVTP
# Variants of: B1
# Experiment: abundance fitness (aPCA) (normalised: wild type 0, dead -1); higher = more abundant; growth selection in yeast, the domain comes from the species named
# Details: Homo sapiens
row,Variant,abundance fitness
1,G72N,-0.16 ± 0.19
2,G72W,-0.662 ± 0.072
3,Y67I,0.02 ± 0.12
4,Y67M,0.102 ± 0.061
5,Y67T,-0.05 ± 0.058
6,Y67L,-0.029 ± 0.042
7,Y67R,0.022 ± 0.035
8,Y67Q,-0.017 ± 0.091
9,Y67W,-0.049 ± 0.049
10,Y67A,0.03 ± 0.048
11,Y67F,-0.021 ± 0.065
12,Y67C,0.039 ± 0.053
13,Y67N,-0.06 ± 0.096
14,Y67G,-0.053 ± 0.036
15,Y67K,0.083 ± 0.11
16,Y67S,0.001 ± 0.043
17,Y67H,-0.006 ± 0.1
18,Y67P,-0.566 ± 0.065
19,Y67V,-0.02 ± 0.039
20,P70W,-0.141 ± 0.047
21,P70N,0.036 ± 0.15
22,P70G,-0.027 ± 0.039
23,P70E,-0.004 ± 0.078
24,P70K,0.041 ± 0.068

row,Variant,abundance fitness
1,P70A,0.023 ± 0.045
2,P70T,0.037 ± 0.041
3,P70Y,-0.061 ± 0.079
4,P70H,-0.143 ± 0.085
5,P70D,0.091 ± 0.063
6,P70Q,0.034 ± 0.065
7,P70C,-0.051 ± 0.071
8,P70F,-0.081 ± 0.07
9,P70M,-0.097 ± 0.077
10,P70S,0.016 ± 0.037
11,P70I,0.021 ± 0.11
12,P70V,0.011 ± 0.047
13,P70R,0.05 ± 0.037
14,T69K,-0.249 ± 0.1
15,T69W,-0.362 ± 0.065
16,T69A,-0.028 ± 0.061
17,T69L,-0.195 ± 0.042
18,T69M,-0.148 ± 0.075
19,T69Q,-0.036 ± 0.065
20,T69E,-0.095 ± 0.041
21,T69Y,-0.358 ± 0.13
22,T69R,-0.015 ± 0.028
23,T69G,-0.003 ± 0.032
24,T69D,-0.04 ± 0.11

row,Variant,abundance fitness
1,T69V,-0.13 ± 0.044
2,T69I,-0.298 ± 0.15
3,T69H,-0.071 ± 0.075
4,T69N,-0.042 ± 0.13
5,T69P,-0.703 ± 0.087
6,T77F,-0.073 ± 0.076
7,T77H,-0.084 ± 0.079
8,T77Y,-0.084 ± 0.071
9,T77D,0.077 ± 0.06
10,T77I,-0.261 ± 0.082
11,T77Q,-0.099 ± 0.078
12,T77M,-0.164 ± 0.12
13,T77R,0.09 ± 0.048
14,T77E,0.034 ± 0.088
15,T77G,-0.057 ± 0.048
16,T77N,0.059 ± 0.085
17,T77C,0.04 ± 0.072
18,T77W,-0.111 ± 0.049
19,T77L,-0.072 ± 0.066
20,T77S,0.024 ± 0.07
21,T77V,-0.065 ± 0.046
22,T77P,-0.003 ± 0.088
23,T77A,-0.019 ± 0.057
24,Y73V,-0.171 ± 0.063

row,Variant,abundance fitness
1,Y73T,-0.174 ± 0.11
2,Y73R,-0.055 ± 0.048
3,Y73W,-0.041 ± 0.06
4,Y73S,-0.011 ± 0.059
5,Y73M,-0.108 ± 0.072
6,Y73I,-0.261 ± 0.16
7,Y73P,-0.149 ± 0.055
8,Y73L,-0.029 ± 0.042
9,Y73Q,-0.078 ± 0.054
10,Y73K,-0.085 ± 0.1
11,Y73E,-0.089 ± 0.077
12,Y73D,-0.136 ± 0.14
13,Y73N,0.043 ± 0.23
14,F74Q,0.006 ± 0.078
15,F74A,0.095 ± 0.056
16,F74G,0.052 ± 0.035
17,F74W,-0.002 ± 0.067
18,F74L,-0.046 ± 0.044
19,F74P,-0.445 ± 0.064
20,F74C,-0.042 ± 0.074
21,F74V,-0.003 ± 0.051
22,F74S,0.077 ± 0.057
23,F74D,-0.038 ± 0.11
24,F74T,-0.031 ± 0.062

row,Variant,abundance fitness
1,F74I,-0.001 ± 0.067
2,F74Y,-0.065 ± 0.14
3,F74H,-0.248 ± 0.13
4,F74K,0.024 ± 0.053
5,F74N,-0.361 ± 0.27
6,F74M,0.073 ± 0.078
7,F74E,-0.004 ± 0.086
8,P68R,0 ± 0.034
9,P68C,0.044 ± 0.043
10,P68F,-0.014 ± 0.076
11,P68M,-0.038 ± 0.056
12,P68W,-0.057 ± 0.047
13,P68N,0.009 ± 0.15
14,P68T,0.04 ± 0.093
15,P68K,-0.082 ± 0.23
16,P68I,-0.046 ± 0.12
17,P68H,0.051 ± 0.093
18,P68G,-0.003 ± 0.027
19,P68L,0.017 ± 0.035
20,P68S,0.059 ± 0.049
21,P68A,0.065 ± 0.049
22,P68D,-0.042 ± 0.14
23,P68Y,-0.141 ± 0.086
24,P68V,0.082 ± 0.036

row,Variant,abundance fitness
1,P78E,-0.44 ± 0.29
2,P78K,-0.086 ± 0.21
3,P78C,0.072 ± 0.2
4,P78V,-0.182 ± 0.09
5,P78G,-0.239 ± 0.11
6,P78R,0.049 ± 0.082
7,P78T,-0.191 ± 0.085
8,P78H,-0.191 ± 0.15
9,P78S,-0.038 ± 0.064
10,P78M,-0.289 ± 0.12
11,P78N,-0.219 ± 0.18
12,P78Y,-0.098 ± 0.14
13,P78F,-0.37 ± 0.2
14,P78A,-0.05 ± 0.064
15,I66D,-1.02 ± 0.27
16,I66H,-1 ± 0.24
17,I66V,-0.041 ± 0.048
18,I66R,-1.17 ± 0.12
19,I66G,-0.894 ± 0.074
20,I66T,-0.38 ± 0.055
21,I66L,-0.05 ± 0.041
22,I66F,-0.937 ± 0.13
23,I66A,-0.173 ± 0.05
24,I66C,0.016 ± 0.059

row,Variant,abundance fitness
1,I66M,-0.249 ± 0.077
2,I66Y,-0.971 ± 0.27
3,I66W,-0.847 ± 0.079
4,I66Q,-1.01 ± 0.18
5,I66E,-1.08 ± 0.21
6,D71W,-0.189 ± 0.047
7,D71N,-0.012 ± 0.16
8,D71K,0.073 ± 0.088
9,D71P,-0.223 ± 0.054
10,D71R,-0.088 ± 0.037
11,D71S,-0.05 ± 0.046
12,D71T,0.004 ± 0.079
13,D71A,-0.002 ± 0.049
14,D71H,0.031 ± 0.081
15,D71G,0.018 ± 0.037
16,D71E,-0.005 ± 0.069
17,D71C,-0.154 ± 0.061
18,D71Y,-0.243 ± 0.099
19,D71M,-0.054 ± 0.083
20,D71V,-0.022 ± 0.063
21,D71I,-0.313 ± 0.25
22,D71Q,-0.054 ± 0.075
23,D71F,-0.099 ± 0.056
